The results in this text go back to publication PMC4376459, “CXCR3 antagonist VUF10085 binds to an intrahelical site distinct from that of the broad spectrum antagonist TAK-779” (British Journal of Pharmacology, 2015).

Common to all, as to assay: Whole-cell 125I-CXCL11 binding assay, L1.2 transfectants
One experiment addresses T1, CXCR3 F207A (Homo sapiens, UniProt P49682, F207A).
T1 construct: expressed in transfected cells; host or cells: murine pre-B cell line L1.2, transient transfection
T1 sequence (P49682 1-368 F207A): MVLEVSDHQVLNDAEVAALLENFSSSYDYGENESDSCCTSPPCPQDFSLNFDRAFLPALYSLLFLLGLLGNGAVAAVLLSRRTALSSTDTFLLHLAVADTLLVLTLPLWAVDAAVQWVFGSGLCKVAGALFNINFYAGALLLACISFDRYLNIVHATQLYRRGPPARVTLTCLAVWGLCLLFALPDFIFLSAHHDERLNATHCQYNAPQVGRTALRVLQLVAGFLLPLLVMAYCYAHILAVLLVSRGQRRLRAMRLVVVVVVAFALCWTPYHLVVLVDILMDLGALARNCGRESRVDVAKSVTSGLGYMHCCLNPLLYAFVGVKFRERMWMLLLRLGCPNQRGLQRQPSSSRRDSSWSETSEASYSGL
Conditions: maximum concentration of CXCL11. Here is the method:
(§1) A previously described pcDNA3 plasmid containing human wild type (WT) CXCR3 cDNA with an HA epitope tag encoded at the N terminus (Meiser et al., [2008]) was used as a template for the generation of point mutants by PCR using the QuikChange II site-directed mutagenesis kit (Stratagene, Amsterdam, the Netherlands). All constructs were verified by DNA sequencing (Eurofins MWG Operon, Ebersberg, Germany) before use. L1.2 cells were transiently transfected by electroporation with 1 μg of vector DNA/10^6 cells at 330V, 975μF and incubated overnight in medium supplemented with 10 mM of sodium butyrate to enhance gene expression.
(§2) Whole-cell binding assays on transiently transfected L1.2 cells were performed as described previously (Vaidehi et al., [2009]) using 0.1 nM ^125I-CXCL11 (Perkin Elmer) and increasing concentrations of unlabeled CXCL11 or antagonist. Cell-associated radioactivity was counted in a Canberra Packard Cobra 5010 gamma counter (Canberra Packard, Pangebourne, UK). Curve fitting and subsequent data analysis was carried out using the program PRISM (GraphPad Software, Inc., San Diego, CA, USA) and IC50 values were obtained by non-linear regression analysis. In all experiments, each data point was assayed in duplicate, with each individual experiment repeated three times. Background binding levels obtained in the presence of a 1000–3000 molar excess of unlabelled chemokine were subtracted from each data point and data are presented as the percentage of counts obtained in the absence of competing ligand. KD values and the number of binding sites per cell were calculated from homologous binding curves prepared in Graph Pad Prism (La Jolla, CA, USA) as previously described (Nedjai et al., [2011]).

The next experiment deals with T2, CXCR3 N132A (Homo sapiens, UniProt P49682, N132A).
T2 construct: expressed in transfected cells; host or cells: murine pre-B cell line L1.2, transient transfection
T2 sequence (P49682 1-368 N132A): T1 sequence (P49682 1-368 F207A) with N132A, A207F
Particulars: maximum concentration of CXCL11. Here is the method: as §1, §2

A further experiment deals with T3, CXCR3 Y271A (Homo sapiens, UniProt P49682, Y271A).
T3 construct: expressed in transfected cells; host or cells: murine pre-B cell line L1.2, transient transfection
T3 sequence (P49682 1-368 Y271A): T1 sequence (P49682 1-368 F207A) with A207F, Y271A
Conditions: maximum concentration of CXCL11. As for the experimental part: as §1, §2

The target of a further experiment is T4, CXCR3 I279A (Homo sapiens, UniProt P49682, I279A).
T4 construct: expressed in transfected cells; host or cells: murine pre-B cell line L1.2, transient transfection
T4 sequence (P49682 1-368 I279A): T1 sequence (P49682 1-368 F207A) with A207F, I279A
Conditions: I279A, 0.1 nM 125I-CXCL11; read-out: IC50 ligand binding (mean ± SEM).

Positions count from the first letter of the chain named.

On to “CXCL11: recombinant human chemokine, CXCR3 agonist, purchased from PeproTech”, for which the “displacement of 125I-CXCL11 by unlabelled CXCL11” value in the experiment with CXCR3 F207A, in the experiment with CXCR3 N132A and in the experiment with CXCR3 Y271A was “unable to displace 50%” each time.
For orientation: IC50 means the concentration at which inhibition is half-maximal. In the case of `Cc1ccc(-c2ccc3c(c2)C=C(C(=O)Nc2ccc(C[N+](C)(C)C4CCOCC4)cc2)CCC3)cc1.[Cl-]` [TAK-779, N,N-dimethyl-N-[4-[[[2-(4-methylphenyl)-6,7-dihydro-5H-benzocyclohepten-8-yl]-carbonyl]amino]benzyl] tetrahydro-2H-pyran-4-aminium chloride], at CXCR3 I279A, the IC50 is 39.4 ± 15 µM.
